Assay results as given in the supplement of paper PMC10724198.
± gives the standard deviation of the averaged measurements.

What was measured:
Saccharomyces cerevisiae [1] = test: protein stability index of tFT-peptide fusion (C-terminal peptide) (PSI (0-1 scale)); higher = more stable (slower turnover); conditions: genetic background: wild type; temperature: 30 C
Saccharomyces cerevisiae [2] = test: as above
Method: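 MPS profiling in S. cerevisiae of the tFT-X12 degron library: putative degron peptides plus stable controls, 12 aa, fused to the C-terminus of a sfGFP-mCherry timer. Cells are FACS-sorted into 8 mCherry/sfGFP bins and deep-sequenced. PSI runs from 0 (unstable) to 1 (stable). Backgrounds are wild type, das1Δ and doa10Δ at 30 °C, and wild type, das1Δ, cdc34-1 and cdc53-1 at 37 °C; 2-3 technical replicates each.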

[3] = genetic background: cdc34-1, temperature: 37 C
[4] = genetic background: cdc53-1, temperature: 37 C
[5] = genetic background: das1 deletion, temperature: 30 C
[6] = genetic background: das1 deletion, temperature: 37 C
[7] = genetic background: doa10 deletion, temperature: 30 C
[8] = genetic background: wild type, temperature: 30 C
[9] = genetic background: wild type, temperature: 37 C
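Also: PSI is a weighted mean of sequencing reads over stability bins, variants kept only with over 10 reads, mCherry proximal and sfGFP distal, peptide attached via GGGS linker.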

Row | Sequence | protein stability index (Saccharomyces cerevisiae [1]) | protein stability index (Saccharomyces cerevisiae [2]; [3]) | protein stability index (Saccharomyces cerevisiae [2]; [4]) | protein stability index (Saccharomyces cerevisiae [2]; [5]) | protein stability index (Saccharomyces cerevisiae [2]; [6]) | protein stability index (Saccharomyces cerevisiae [2]; [7]) | protein stability index (Saccharomyces cerevisiae [2]; [8]) | protein stability index (Saccharomyces cerevisiae [2]; [9])
1 | PVLIFTWVIVCH | 0.162 ± 0.036 | 0.0357 ± 0.011 | 0.0674 ± 0.026 | 0.0676 ± 0.026 | 0.142 ± 0.013 | 0.0332 ± 0.0019 | 0.0533 ± 0.023 | 0.0899 ± 0.012
2 | PVLPPPLLLCPC | 0.22801 ± 2.4e-05 | 0.0283 ± 0.018 | 0.0268 ± 0.011 | 0.119 ± 0.023 | 0.11 ± 0.024 | 0.0972 ± 0.0096 | 0.15 ± 0.018 | 0.0932 ± 0.032
3 | PWEYSSQLVLVI | 0.281 ± 0.022 | 0.0478 ± 0.02 | 0.0865 ± 0.011 | 0.179 ± 0.025 | 0.2067 ± 0.0011 | 0.155 ± 0.0084 | 0.177 ± 0.023 | 0.159 ± 0.021
4 | QCRLPRPPLSLP | 0.436 ± 0.022 | 0.676 ± 0.017 | 0.7414 ± 0.0062 | 0.651 ± 0.022 | 0.7354 ± 0.0058 | 0.672 ± 0.032 | 0.692 ± 0.009 | 0.693 ± 0.0099
5 | QPTGYFKLIIIK | 0.3976 ± 0.0014 | 0.317 ± 0.029 | 0.393 ± 0.072 | 0.3 ± 0.044 | 0.473 ± 0.047 | 0.38 ± 0.0083 | 0.323 ± 0.067 | 0.4476 ± 0.0013
6 | QPTPQSALAKHQ | 0.515 ± 0.04 | 0.655 ± 0.018 | 0.721 ± 0.04 | 0.6492 ± 0.005 | 0.731 ± 0.034 | 0.3327 ± 0.0025 | 0.337 ± 0.0054 | 0.544 ± 0.04
7 | RASLPSLFRSLL | 0.811 ± 0.073 | 0.951 ± 0.014 | 0.913 ± 0.048 | 0.804 ± 0.047 | 0.879 ± 0.019 | 0.8152 ± 0.008 | 0.807 ± 0.022 | 0.897 ± 0.011
8 | RAVLRFVMVWVL | 0.317 ± 0.0068 | 0.499 ± 0.042 | 0.611 ± 0.024 | 0.466 ± 0.02 | 0.5789 ± 0.003 | 0.253 ± 0.024 | 0.244 ± 0.051 | 0.434 ± 0.022
9 | RCTLFVNPVCVH | 0.349 ± 0.014 | 0.251 ± 0.018 | 0.304 ± 0.008 | 0.242 ± 0.034 | 0.402 ± 0.025 | 0.197 ± 0.011 | 0.241 ± 0.015 | 0.345 ± 0.017
10 | RGFIFFALWSFC | 0.384 ± 0.08 | 0.458 ± 0.0091 | 0.544 ± 0.021 | 0.375 ± 0.031 | 0.5317 ± 0.0053 | 0.334 ± 0.021 | 0.35 ± 0.016 | 0.498 ± 0.022
11 | RGFVVFCIPCFV | 0.3392 ± 0.002 | 0.301 ± 0.042 | 0.326 ± 0.021 | 0.259 ± 0.042 | 0.428 ± 0.033 | 0.204 ± 0.0051 | 0.243 ± 0.03 | 0.401 ± 0.038
12 | RGKVVRGLLFCA | 0.3 ± 0.12 | 0.619 ± 0.058 | 0.7188 ± 0.0062 | 0.624 ± 0.031 | 0.7327 ± 0.0057 | 0.137 ± 0.012 | 0.151 ± 0.0035 | 0.318 ± 0.077
13 | RGPAYATCHLLC | 0.232 ± 0.028 | 0.599 ± 0.041 | 0.7316 ± 0.0053 | 0.645 ± 0.012 | 0.75 ± 0.0094 | 0.119 ± 0.013 | 0.141 ± 0.022 | 0.257 ± 0.015
14 | RIAIRSAVICAS | 0.183 ± 0.028 | 0.306 ± 0.05 | 0.379 ± 0.0076 | 0.276 ± 0.028 | 0.487 ± 0.0057 | 0.101 ± 0.032 | 0.138 ± 0.038 | 0.154 ± 0.02
15 | RIIKIRAISINL | 0.501 ± 0.022 | 0.575 ± 0.062 | 0.66 ± 0.065 | 0.523 ± 0.023 | 0.607 ± 0.061 | 0.454 ± 0.03 | 0.468 ± 0.016 | 0.609 ± 0.03
16 | RILKLPGHVNDV | 0.7167 ± 0.005 | 0.6842 ± 0.0067 | 0.711 ± 0.031 | 0.654 ± 0.043 | 0.697 ± 0.026 | 0.652 ± 0.065 | 0.65 ± 0.027 | 0.69 ± 0.019
17 | RIRLYWVLRRLG | 0.183 ± 0.0066 | 0.595 ± 0.008 | 0.693 ± 0.013 | 0.571 ± 0.023 | 0.758 ± 0.0098 | 0.0772 ± 0.023 | 0.0992 ± 0.031 | 0.129 ± 0.0085
18 | RISGSIVVRKRS | 0.554 ± 0.1 | 0.673 ± 0.032 | 0.738 ± 0.011 | 0.642 ± 0.015 | 0.722 ± 0.019 | 0.425 ± 0.0081 | 0.45 ± 0.033 | 0.6333 ± 0.0061
19 | RLPRILVLVCLF | 0.237 ± 0.017 | 0.231 ± 0.0089 | 0.318 ± 0.025 | 0.228 ± 0.04 | 0.383 ± 0.00011 | 0.169 ± 0.0018 | 0.163 ± 0.022 | 0.25 ± 0.0094
